The target of this experiment is human β3 homopentameric GABAAR construct (K279T, M3-M4 loop replaced by SQPARAA) (human) (UniProt P28472). The experiment is described as follows: cryo-EM structure.

In turn, “human β3 homopentameric GABAAR construct (K279T, M3-M4 loop replaced by SQPARAA) (from UniProt P28472 26-473) (receptor)” came in with a stoichiometry N of 5.

(Values after paper PMC7611088.)
